# Data reported in the supplement of paper PMC12042874.
# ± gives the uncertainty stated by the source.
# Assay: amyloid nucleation score (Sup35N fusion, yeast selection) (log enrichment); library NNK3; higher = more nucleation; inactive = no reads after selection
# Summary of the method: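 On medium lacking adenine and uracil, psi-negative yeast expressing peptides of 20 random codons fused to Sup35N were grown 7 days at 30°C after a 24-hour induction with 100 μM copper sulfate. Illumina sequencing of input and output plasmid inserts gave the reads, and sequences under 100 input reads were excluded. The nucleation score is the DiMSum log enrichment of output over input reads, centred on the mode score of non-aggregating sequences.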
row,Substance,amyloid nucleation score
1,LLVWNLMTRFYYF,inactive
2,ARQTVPSCTLYYWFLSTVKY,inactive
3,SWMDRILVRYWVVLDNRNFV,inactive
4,VVDNRNLSTCFYFRCVDWCQ,inactive
5,SYGTSGCRRLVLWTYDSKFI,inactive
6,WNCGSPPR,inactive
7,IVYFPLILGAIIYWMSETHL,inactive
8,DATSNC,-0.232 ± 0.73
9,SLLFTGHLCLYHTLVCCVFI,1.28 ± 0.11
10,ISMNLVLFMWFRRIGFLICL,inactive
11,YYRSCWLSLCWCYHYCYGVD,0.346 ± 0.61
12,LYTDVEYRVWCVTFLVRPSK,inactive
13,FVDMIMKEDKFVLGQNFLRG,inactive
14,NSGGFSKDDGNGYKA,inactive
15,LGVTGINSVIYMYEMVS,inactive
16,MWPYIMILGIVDTMWLLLSP,inactive
17,FNWTKS,inactive
18,AALSSTW,inactive
19,TDFFG,inactive
20,VCRFYIGFTYWLSCC,inactive
21,LFFFMALRVGLPNNTNMGMK,inactive
22,WAPACYTDSCVMIGGEPYRT,inactive
23,CVFLCDDWFGFCNLNRRFKG,2.82 ± 0.074

row,Substance,amyloid nucleation score
1,DFNDSLFLPRIDTPSLVFLQ,inactive
2,IVHCWLMSGASVWTLQETPN,-0.105 ± 1.4
3,RLAGCYYIP,inactive
4,VVDCLFLSEPCYVGFRWVIE,inactive
5,AYMYSTILGSMPS,1.44 ± 0.11
6,HYILLG,inactive
7,VRNWTDD,inactive
8,LGMIHFVFMYFETYCYTYTI,inactive
9,TCFLVFTCVVGV,inactive
10,DRHSTYCLAS,inactive
11,VICGGNRLRSIQWTFWLWDN,inactive
12,FCMMKRSFCPDLNKLATDLV,inactive
13,YSRSGISFFTGRHKLFSMYG,inactive
14,NISSTSFRMGNIIGNEFLVY,inactive
15,SFYSNGKLLVILFATMMD,inactive
16,KVVARYRRKVCYNWHISEEK,inactive
17,SFELVQWDS,inactive
18,SKFLVNGAGLDELDVLVCLL,inactive
19,KSNSSLTRRARYETSTSSSP,inactive
20,SQFLLGSQ,inactive
21,TFSNYALNVSAYRVDIFEML,0.979 ± 0.14
22,VLCVETTCPVGDIMECCLLP,inactive
23,GISFFIMFILVPLFRKGVKV,inactive

row,Substance,amyloid nucleation score
1,CHYRYISYVENFPCSERVSI,inactive
2,HIVIISYFRLLWSCIAPHGA,inactive
3,NLENVLFRDRYQSSTCKLCK,inactive
4,PFFDFSDINITEPE,-0.306 ± 0.71
5,RECWMKPNLNSNTYSEMICE,0.011 ± 0.81
6,FHIRHEGMLFQWGHEALAVK,inactive
7,IRGIVV,inactive
8,YFNLPISW,-0.316 ± 0.7
9,QQSTIIFFVWAWMELNPTWK,inactive
10,MIVARMLVSIYKSWTIILRY,inactive
11,EDIGGCECRYSIKDVY,inactive
12,YSKEWVFISIIQKLADGQCN,-0.182 ± 0.66
13,KISMSRVVFDNSSTGTIEGQ,inactive
14,SCHFYTML,0.237 ± 0.65
15,ITVIGQLIALKQFSTLTRSI,inactive
16,IDSDMDKNS,inactive
17,GLCNNHIGKIFTYWNTPLDY,inactive
18,SSCPYIFYQLST,inactive
19,FDLWNIILVYIPVNACC,0.735 ± 0.11
20,KVADSVIEFMLTCWGIRQDS,inactive
21,AFINMMWNSTMDLCRPFLPT,0.698 ± 0.27
22,YAGQDEFFMVTVYIKPNDLC,1.85 ± 0.085
23,MSSQVMALIRFQFHSHDSHG,1.36 ± 0.16

row,Substance,amyloid nucleation score
1,SHIVFM,inactive
2,KSRTIQECMAATYVSVFECF,inactive
3,EIRKQHCCHS,inactive
4,RVFYCNL,1.6 ± 0.059
5,TLGLAVFDNSMDRWYEDVKK,inactive
6,MRIRIPTSNNEGYPIFMSAL,inactive
7,WMRVSCDTRGYSSFQAY,-0.538 ± 0.75
8,LSGKWNKMVCRLVTSKLIFE,inactive
9,MVFCNGFGYGASNFGNNSAS,inactive
10,PVGKMDLRIDKNSWSYLVLD,inactive
11,SNSVHISLYIGSPSFA,2.56 ± 0.086
12,VMYNYARFRWFLCTDQ,1 ± 0.2
13,VFLSSELSTLLVVYRLLGSG,inactive
14,KSASKVGLMKAYRNASRTVI,inactive
15,VVWLSNSEWLRYLKDG,inactive
16,CKGKSFFARSYS,inactive
17,LLLSFYLNGILVIHML,inactive
18,NLGGAPVL,inactive
19,RITIMFGSLINDLHFCNA,2.87 ± 0.052
20,NQYLLCMLMWNARSGSRSMI,inactive
21,CGSVSSI,inactive
22,ACLYY,inactive
23,GLWNDCKRWLRRS,inactive

row,Substance,amyloid nucleation score
1,NFTSRSAVLVR,2.21 ± 0.07
2,CFLRKTSNASLIHPSRDTNN,inactive
3,NGSYIFPSNCYSKIAIVMVG,0.706 ± 0.26
4,WDCVNSAHWVLDMFSNSYVS,inactive
5,CRMERGRFRLLKTQ,inactive
6,RLFMGRS,inactive
7,RVNRSLGIVSIECRWVVIRG,inactive
8,SFRFYVERL,inactive
9,SNLFFSDWTLCCRCIVLVFK,1.6 ± 0.097
10,QPCPYKLCQFFRKDA,inactive
11,TKYCSLPHDQDCVHKFITTV,inactive
12,RSLLGGSKAVYTWDWQPAII,inactive
13,FFRFRKCAM,inactive
14,HDSQMWYLSIIESYLVQYLM,inactive
15,MSCYN,inactive
16,LALLTAADARD,inactive
17,YGPKV,inactive
18,ETRFWNLIHADYIRMIGAGF,inactive
19,AYIFIWWKGANKFVSFNKII,0.684 ± 0.27
20,TGYPGPIKFRRIFYANYYSF,inactive
21,AIDHSFT,inactive
22,ELRQMTRVSVLASYTWSTTL,-0.014 ± 0.46
23,YVCGKF,inactive

row,Substance,amyloid nucleation score
1,MDVVLRINLKQGRYPGTNAH,2.1 ± 0.091
2,YSNRVGNAYMGSLKTSWHVM,inactive
3,CRVVDFG,-0.107 ± 0.49
4,IATDRSSKVLSFHT,inactive
5,SLILERFNRHCVWGVSVKKH,inactive
6,RVYMPAAKSINYEPNITRM,inactive
7,NKQNEVSRSCLSRCRYFGGD,inactive
8,MHATIMVVDRESFHGLGWKS,inactive
9,GDSFCFQLGVMCINHVRWY,1.78 ± 0.09
10,SRNVLYLVIKIYFEDFNPLS,inactive
11,GACRCNCSSSDDPQNKRNML,inactive
12,AWRSMSGVTYPQGTSLPFSK,inactive
13,SRFLSIRELRFWYSMNRWGI,inactive
14,IRSSREFYMSVYRTEAWVLE,inactive
15,NFENMSCSNTVNVLFIEPGA,1.14 ± 0.096
16,RLWLRKT,inactive
17,VFTSGLCEKS,0.195 ± 0.72
18,VYWHVWVALSCFMPANIGVV,inactive
19,FVHQRYRAQIIRLLPTSWGC,inactive
20,RDGTYRWSDLKTICLIRVSW,inactive
21,TIEQCGLS,inactive
22,AVMNVHFDSSVMEPIDLNRW,inactive
23,VAQFDRNLKPKVNYAVNELQ,inactive

row,Substance,amyloid nucleation score
1,RRRFCVKGSPGVRFVEWTLR,-0.696 ± 1.1
2,SLNNYFYSTNYETSFTLD,inactive
3,LTCPSFCVSRLRESWDESLS,inactive
4,ARLRVVIDRCLYRGLSQLQP,inactive
5,CGDAPRQVVVGPRYKRSMES,-0.193 ± 0.65
6,RERPRD,inactive
7,LITKWKWEFANTQWRSGQKG,1.36 ± 0.15
8,NWTQSIFVGGQRDRLVISRT,inactive
9,SDIMNDH,inactive
10,YFRGPF,inactive
11,MAVLHSLFVKVQLMTSNFS,inactive
12,STGWSMLVFRTRCYLFSFSG,inactive
13,IEFGYLGT,inactive
14,VKIYLSPTWEHIDRVYNCAL,1.59 ± 0.059
15,IDSNE,inactive
16,WLHRTKLWPYFYVKLFPRDK,inactive
17,LVASSYS,inactive
18,ISFSSES,inactive
19,ASHRGYRQRRKDVFHGIEA,inactive
20,CICWQHDKVVAYSLSDAGMA,inactive
21,LEALSLDVNDVVRQYSNSEG,inactive
22,MFKITACIFNIAYSSWFFST,inactive
23,RNMGYVTDNYLYTVLYYDCY,inactive
